Data set [1] is described as follows: in vitro phosphatase assay of TAT-ICD (pNPP). In kind it is biochemical. The note with it: 50 μM TAT control peptide or 50 μM TAT-ICD; 30 minutes. As to the method:
Cells were then sonicated twice (6 sec, 15% \N) and centrifuged at 2000 rpm for 10 minutes. The supernatants were collected and centrifuged at 28000 rpm for 60 minutes and then the membrane pellets were dissolved in 20 mM tris pH 7.4. Equal amount of membrane fractions were added to pNPP buffer containing 20 mM tris, 10 mM DTT and 2 mM pNPP. Following, DMSO and 50 μM TAT control peptide or 50 μM TAT-ICD, in presence or absence of 200 μM Na3VO4 were added. After 30 minutes of incubation, levels of de-phosphorylation, in presence or absence of orthovanadate, were measured at 405 nm by a plate reader (Table 5). Shown is % fold increase over the pNPP buffer alone; mean values of 7 experiments in triplicate.

Data set [2] concerns normal primary cortical murine neurons. The data set can be described thus: MTT assay, normal primary cortical neurons. Type of data set: cell-based, mouse. On the procedure:
Briefly, U251 GBM cells, normal primary cortical murine neurons and a mixed culture of murine microglia and astrocytes were treated for 24, 48 and 72 hours with no treatment (control), delivery peptide (P1 or TAT) or increasing concentrations of P1-WD or TAT-ICD. Cell viability and survival was measured using the MTT assay, a colorimetric assay for assessing cell metabolic activity set up under conditions where the absorption reflects the number of viable cells present (Table 21 and 22) and expressed as relative absorption at 570 nm. Early apoptosis was measured using VYBRANT DyeCycle Violet stain (Molecular Probes), a DNA-selective, cell membrane-permeant dye that can distinguish the compacted state of the nuclear chromatin in apoptotic cells as determined by flow cytometry and presented as the percent of cells that are apoptotic (Table 23 and 24). The actual number of cells following treatment with TAT-ICD or TAT alone (Table 25) was determined using flow cytometry compared to an input of 5,000 cells at time zero. To confirm apoptosis the TUNEL labeling assay, which detects DNA strand breaks in apoptotic cells by fluorescence microscopy, was also used to examine U251 cells treated with the PTPRG WD. Briefly, the assay used an optimized terminal transferase ([…]) to label 3′OH ends in genomic DNA with TMR-dUTP, thus allowing the measurement and quantification of cell death by apoptosis. U251 cells were pretreated for 1, 3 and 6 hours with 50 μM P1-WD. Then cells were fixed and permeabilized, incubated with TUNEL reaction mixture for 1 h at RT, and then stained with DAPI (for nuclei detection) and with Alexa670-Phalloidin (to detect actin in cell membranes). After the staining steps, cells were visualized with a confocal microscope.
In striking contrast, treatment of normal primary cortical neurons isolated from mouse pups treated with TAT alone or TAT-ICD for 24-72 hours (Table 26) are mean and sd of absorption using the MTT assay as described above.

The subject of a further data set is COS7 cells. The data set can be described thus: MTT assay, COS7 cells. Type of data set: cell-based.
Data set [3] relates to tyrosine phosphatase activity in PMNs. The data set is described as follows: in vitro phosphatase activity (pNPP) on membranes from human primary PMNs. The note with it: PMN membranes, DMSO 0.75. Type of data set: biochemical. On the procedure: We first tested the biochemical activity of the fusion peptide by performing in vitro assays of phosphatase activity on purified membranes isolated from human primary monocytes compared to membranes isolated from human primary polymorphonuclear cells (PMNs). Human primary monocytes and polymorphonuclear (PMNs) cells were isolated from whole blood of healthy donors. Purity of monocyte preparation was evaluated by flow cytometry after staining with fluorescein isothiocyanate (FITC)-conjugated anti-CD14 antibody and was more than 95%. Isolated cells were kept at 37° C. in standard adhesion buffer (PBS, 1 mM CaCl2, 1 mM MgCl2, 10% FBS, pH 7.2) and used within 1 h.
The phosphatase activity in membrane fractions isolated from human monocytes and PMNs was assessed. […] Cells were then sonicated twice (6 sec, 15% W) and centrifuged at 2000 rpm for 10 minutes. The supernatants were collected and centrifuged at 28000 rpm for 60 minutes. After centrifugation, the supernatants were discarded, and the membrane pellets were dissolved in 20 mM tris pH 7.4. Equal amount of membrane fractions were added to pNPP buffer containing 20 mM tris, 10 mM DTT and 2 mM pNPP. Following, DMSO and peptides were added. After 30 minutes of incubation, levels of de-phosphorylation, in presence or absence of orthovanadate, were measured at 405 nm by a plate reader. Values are absorbance at 405 nn shown as percent fold increase over the blank; mean values of three experiments are shown. *p<0.001 vs vehicle (DMSO).

Setting [4] is: 0.25 uM, 24 hours, Control 1116.
The mark [5] stands for this setting: 0.25 uM, 48 hours, Control 1022.

As to “TAT-ICD: fusion recombinant protein SEQ ID 5: PTPRG intracellular domain aa 797-1445 fused to 13 aa TAT sequence”, in data set [1], the “phosphatase activity, % fold increase over the pNPP buffer alone” value was 4661.0%. Moreover, the “absorbance in the MTT assay” value in data set [2] (0.1 uM, 24 hours, Control 1116) was determined as 1115; in data set [2] (0.1 uM, 48 hours, Control 1022), 989; in data set [2] (0.1 uM, 72 hours, Control 994) it was 1074; in data set [2] (setting [4]) it was 928; in data set [2] (setting [5]), 923; in data set [2] (0.25 uM, 72 hours, Control 994), 1204. Also, the “absorbance in the MTT assay” value in data set [2] (0.5 uM, 24 hours, Control 1116) is 1164; in data set [2] (0.5 uM, 48 hours, Control 1022) it was 1109; in data set [2] (0.5 uM, 72 hours, Control 994), 1376. Moreover, the “mean absorbance in the MTT assay” value stood at 674 in the data set on COS7 cells (0.1 μM, 24 hours, CTRL 700); 1391 with COS7 cells (0.1 μM, 48 hours, CTRL 1267); 1481 in the data set on COS7 cells (0.1 μM, 72 hours, CTRL 1500); 684 in the data set on COS7 cells (0.25 μM, 24 hours, CTRL 700); 1289 with COS7 cells (0.25 μM, 48 hours, CTRL 1267); 1489 with COS7 cells (0.25 μM, 72 hours, CTRL 1500). For the same substance, the “mean absorbance in the MTT assay” value turned out to be 694 with COS7 cells (0.5 μM, 24 hours, CTRL 700); 1295 in the data set with COS7 cells (0.5 μM, 48 hours, CTRL 1267); 1461 with COS7 cells (0.5 μM, 72 hours, CTRL 1500).

On to “P1: Penetratin delivery peptide, 16 aa RQIKIWFQNRRMKWKK (SEQ ID 4), control [reference compound]”, for which the “phosphatase activity, absorbance at 405 nm as percent fold increase over the blank” value in data set [3] (control peptide, concentration not given) stood at 5.08%.

For the substance “TAT (GRKKRRQRRRPPQ; listed as Homo sapiens) [reference compound]”, the “phosphatase activity, % fold increase over the pNPP buffer alone” value in data set [1] is reported as 191.7%. For the same substance, the “absorbance in the MTT assay” value is reported as 1150 in data set [2] (0.1 uM, 24 hours, Control 1116); 1151 in data set [2] (0.1 uM, 48 hours, Control 1022); 1151 in data set [2] (0.1 uM, 72 hours, Control 994); 908 in data set [2] (setting [4]); 955 in data set [2] (setting [5]); 957 in data set [2] (0.25 uM, 72 hours, Control 994). In addition, the “absorbance in the MTT assay” value in data set [2] (0.5 uM, 24 hours, Control 1116) came to 1184; in data set [2] (0.5 uM, 48 hours, Control 1022), 1148; in data set [2] (0.5 uM, 72 hours, Control 994), 1224. The “mean absorbance in the MTT assay” value worked out at 649 in the data set with COS7 cells (0.1 μM, 24 hours, CTRL 700); 1320 in the data set on COS7 cells (0.1 μM, 48 hours, CTRL 1267); 1495 with COS7 cells (0.1 μM, 72 hours, CTRL 1500); 624 in the data set on COS7 cells (0.25 μM, 24 hours, CTRL 700); 1250 in the data set with COS7 cells (0.25 μM, 48 hours, CTRL 1267); 1388 with COS7 cells (0.25 μM, 72 hours, CTRL 1500). In addition, the “mean absorbance in the MTT assay” value in the data set on COS7 cells (0.5 μM, 24 hours, CTRL 700) was determined as 650; with COS7 cells (0.5 μM, 48 hours, CTRL 1267), 1289; in the data set on COS7 cells (0.5 μM, 72 hours, CTRL 1500), 1341.

As for “P1-WD: fusion Trojan peptide SEQ ID 3: Penetratin, glycine, PTPRG wedge domain aa 831-856; RQIKIWFQNRRMKWKKGKQFVKHIGELYSNNQHGFSEDFEEVQ (listed as Homo sapiens)”, the “phosphatase activity, absorbance at 405 nm as percent fold increase over the blank” value in data set [3] (P1-WD 50 micromolar) was found to be 5.15%; in data set [3] (P1-WD 100 micromolar), 8.54%; in data set [3] (P1-WD 200 micromolar) it was 12.89%.

These data come from patent US10898548B2, “Modulators of protein tyrosine phosphatase and uses thereof” (LEUVAS THERAPEUTICS, priority 2015, dated 2021).
